Values belong to the molecule of their own block, whether it stands above or below them.
How the values were obtained:
[1] = target: FGFR (fibroblast growth factor receptor on NIH3T3 mouse fibroblast cells); assay: cell-based or functional assay
[2] = system: NIH3T3 (mouse fibroblast cell line); assay: Inhibition of growth factor activity of VHH homodimer by FGFR antagonist; assay type: cell-based; conditions: 20 nM
Description: The cell growth assay for FGF2 was performed according to the following procedure. On Day 1, a suspension including 2.5×10^4 cells/mL of NIH3T3 in DMEM of 10% CS and PS(+) was created, seeded on a CulturPlate-96 (White Opaque 96-well Microplate, manufactured by Perkin Elmer, Cat #6005680) at 100 μL/well, and cultured in a 5% CO2 incubator at 37° C. for 16 to 24 hours. On Day 2, the medium was replaced with FGF2 (PeproTech Cat #AF-100-18B) or serum-free PS(+) DMEM including various test substances, and the cells were further cultured for 2 days. On Day 4, the 96-well plate was left at room temperature for 30 minutes, and then 100 μL of Cell Titer Glo 2.0 Reagent (manufactured by Promega Corporation) at room temperature was added to each well, followed by stirring at 500 rpm for 2 minutes using a plate mixer. The plate was further left to stand for 8 minutes, and then the luminescence in each well was measured with a Synergy HTX plate reader (manufactured by BioTek) with a sensitivity set (Gain) of 200 and a measurement time of 1 s/well.
The addition amounts of FGF2 and #1L4 (hereinafter also referred to as “#1-L4-#1”), which is a dimer of VHH #1 with a linker […], were each 10 or 100 ng/mL.

[3] = system: mouse fibroblast cell line NIH/3T3; assay: Inhibition of growth factor activity of VHH homodimer by FGFR inhibitor (fibroblasts); assay type: cell-based; conditions: 20 nM
From the text: Promotion of Fibroblast Growth by VHH (Homodimer)” described above.
It was examined whether the cell growth activities of bFGF and the single-domain antibody were inhibited by NPV-BGJ398 which is an FGFR kinase inhibitor.

[4] = target: T1, FGFR4-Fc (human, UniProt P22455 22-369, limits assumed); assay: SPR (Biacore T200, same manner as Example 5, 1:1 model)
T1 construct: not shown: Fc part
T1 sequence (looked up): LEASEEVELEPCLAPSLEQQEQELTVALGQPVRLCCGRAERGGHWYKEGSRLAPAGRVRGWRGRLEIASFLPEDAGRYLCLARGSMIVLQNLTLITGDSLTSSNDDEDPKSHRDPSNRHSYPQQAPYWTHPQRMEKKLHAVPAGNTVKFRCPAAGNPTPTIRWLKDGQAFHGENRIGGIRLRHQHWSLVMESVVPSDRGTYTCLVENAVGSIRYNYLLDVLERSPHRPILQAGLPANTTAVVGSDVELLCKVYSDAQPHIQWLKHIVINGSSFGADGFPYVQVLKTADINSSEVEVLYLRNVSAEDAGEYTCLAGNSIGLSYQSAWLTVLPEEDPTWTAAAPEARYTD

[5] = target: T2, FGFR3-Fc (human, UniProt P22607 23-375); assay: as above
T2 chain: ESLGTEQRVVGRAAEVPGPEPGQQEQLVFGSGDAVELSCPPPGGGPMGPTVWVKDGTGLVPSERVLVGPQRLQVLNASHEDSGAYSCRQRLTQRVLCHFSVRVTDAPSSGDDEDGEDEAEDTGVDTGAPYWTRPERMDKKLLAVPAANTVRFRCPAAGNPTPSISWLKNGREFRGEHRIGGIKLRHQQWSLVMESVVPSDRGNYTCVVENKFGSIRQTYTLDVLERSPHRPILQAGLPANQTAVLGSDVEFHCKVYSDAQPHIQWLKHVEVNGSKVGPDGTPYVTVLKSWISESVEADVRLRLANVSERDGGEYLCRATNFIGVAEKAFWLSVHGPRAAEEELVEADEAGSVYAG

[6] = target: T3, FGFR1-DIIDIII (FGFR1 extracellular domain, DII and DIII domains) (human, UniProt P11362 142-365); assay: BLI (Octet 384), VHH Clone #1 captured on Anti-Penta-HIS sensor, FGFR1 protein in solution from 100 nM in 2-fold dilutions, global 1:1 fit
T3 construct: domain: DIIDIII; Expressed in AAVpro293T cells from a synthesised DNA fragment
T3 sequence (looked up): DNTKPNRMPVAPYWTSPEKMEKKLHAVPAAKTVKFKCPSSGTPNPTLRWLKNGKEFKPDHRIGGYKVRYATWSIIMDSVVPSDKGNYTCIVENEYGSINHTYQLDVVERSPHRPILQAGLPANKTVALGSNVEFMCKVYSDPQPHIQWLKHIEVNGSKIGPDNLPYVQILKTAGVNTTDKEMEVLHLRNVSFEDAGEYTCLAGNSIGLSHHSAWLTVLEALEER
Description: (§1) In the preparation for measurement, a tip of the sensor chip was immersed in 200 μL of the kinetics buffer for 10 minutes in order to hydrate the sensor chip. Thereafter, 70 μL of each measurement solution was added to a 384-well black plate (manufactured by Fortebio), and measurement was performed in the following steps 1) to 6). [0291] 1) Baseline step: Baseline measurement (30 seconds) in a kinetics buffer, [0292] 2) Loading step: Immobilization of a VHH antibody on a sensor (120 seconds), [0293] 3) Baseline step: Baseline measurement (30 seconds) in a kinetics buffer, [0294] […] 5) Dissociation step: Measurement in a kinetics buffer (120 seconds), [0296] 6) Regeneration step: Measurement in Glycin-HCl (pH 2.2) for 5 seconds and measurement in a kinetics buffer for 5 seconds are repeated three times.
(§2) After completion of the measurements, the measured value of a Reference (only the kinetics buffer) was subtracted from the actual measurement value, and Global Fitting was performed using a 1:1 binding model using Octet software to calculate the binding activity (FIG. 22).

[7] = target: T4, FGFR1-DIII (FGFR1 extracellular domain, DIII domain) (human, UniProt P11362 251-365); assay: as above
T4 construct: domain: DIII; Expressed in AAVpro293T cells from a synthesised DNA fragment
T4 sequence (looked up): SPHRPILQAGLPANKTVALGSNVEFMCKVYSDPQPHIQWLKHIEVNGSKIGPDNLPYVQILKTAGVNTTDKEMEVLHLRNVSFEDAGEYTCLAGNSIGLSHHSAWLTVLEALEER
Description: as §1, §2

[8] = target: FGFR2-Fc (human) (UniProt P21802); assay: SPR (Biacore T200, same manner as Example 5, 1:1 model)
[9] = target: T5, FGFR1-DII (FGFR1 extracellular domain, DII domain) (human, UniProt P11362 142-250); assay: BLI (Octet 384); VHH Clone #1 immobilised on an Anti-Penta-HIS sensor, FGFR1-DII in solution [A]
T5 construct: domain: DII; Expressed in AAVpro293T cells from a synthesised DNA fragment
T5 sequence (looked up): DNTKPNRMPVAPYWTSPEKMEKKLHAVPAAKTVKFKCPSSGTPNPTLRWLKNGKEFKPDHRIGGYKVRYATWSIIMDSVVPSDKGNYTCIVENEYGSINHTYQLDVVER
Description: as §1, §2

[10] = target: FGF Receptor 1β (IIIc)/Fc Chimera Human Recombinant Carrier-free (R & D Systems Cat. no. 661-FR) (human) (UniProt P11362); assay: SPR (Biacore T200, CAP chip, biotinylated FGFR1-Fc captured, VHH injected at 1.85-50 nM, single-cycle kinetics, 1:1 model, 25 C)

- EC50 of the growth of cultured fibroblasts (NIH/3T3, Cell Titer Glo luminescence) [1]: 5.1 nM
Molecule: basic FGF (PeproTech, AF-100-18B) (from UniProt P09038 135-288) (ligand)

Molecule: CCN1CCN(c2ccc(Nc3cc(N(C)C(=O)Nc4c(Cl)c(OC)cc(OC)c4Cl)ncn3)cc2)CC1 [NVP-BGJ398]
- effect of NVP-BGJ398 itself on cell growth [2]: little effect on cell growth
- effect of NVP-BGJ398 itself on cell growth [3]: little effect on cell growth

- Kd [4]: 22.2 nM
- koff [4]: 0.0527 s⁻¹
- kon [4]: 2.37e+06 M⁻¹ s⁻¹
- Kd [5]: 1010 nM
- koff [5]: 0.235 s⁻¹
- kon [5]: 232000 M⁻¹ s⁻¹
- Kd [6]: 0.489 nM
- koff [6]: 0.000141 s⁻¹
- kon [6]: 289000 M⁻¹ s⁻¹
- Kd [7]: 1.18 nM
- koff [7]: 0.000351 s⁻¹
- kon [7]: 298000 M⁻¹ s⁻¹
- Kd [8]: 1630 nM
- koff [8]: 0.776 s⁻¹
- kon [8]: 484000 M⁻¹ s⁻¹
- binding result [9]: no binding
- Kd [10]: 1.74 nM
B1: VHH Clone #1 (VHH monomer Clone #1) (VHH)
VHH: QLQLVESGGGSVQAGGSLRLSCAASRSLSRFNVWTWYRQAPVKQRELVASITKSGDTNYAESVKGRFIISRDDDKNTVYLQMNNLKSEDTGIYYCAGSYYSGSYLYPSPGGFSVWGQGTQVTVSS
notes: also called VHH #1; FGFR #1; not shown: C-terminal His tag (purified on Ni Sepharose, captured on Anti-Penta-HIS sensor)

- Kd [10]: 1.02 nM
- koff [10]: 0.00114 s⁻¹
- kon [10]: 1.11e+06 M⁻¹ s⁻¹
B2: VHH Clone #2 (VHH monomer Clone #2) (VHH, not shown: small tags and cut ends)
VHH: QVQLVESGGGLVQAGGSLRLSCAVPGSIFRFNTMGWYRQPPGKQRELVAQMSRGGITKYGDSVKGRFTITRDNAKNTVHLQMNSLKPEDTAVYYCAGSYYSGSYYYPSPQGFSVWGQGTQVTVSP

Source: patent US20240279618A1, “RECEPTOR TYROSINE KINASE AGONIST, COMPOSITION FOR CELL CULTURE MEDIUM, AND […] MAINTENANCE COMPOSITION” (SEKISUI CHEMICAL CO., LTD., priority 2021, published 2024)
